Laboratory results: article PMC2871789, “Characterization of the Interaction and Cross-Regulation of Three Mycobacterium tuberculosis RelBE Modules” (PLoS ONE, 2010)

T1: 6xHis-RelF (Rv2865), purified (M. tuberculosis, UniProt O33347 1-93)
T1 construct: also called his-tagged RelF; pET-2865; not shown: His6, N-terminal, kept
T1 sequence: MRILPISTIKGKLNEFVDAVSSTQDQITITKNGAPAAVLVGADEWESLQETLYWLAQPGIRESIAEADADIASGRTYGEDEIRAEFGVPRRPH

T2: GST-RelE (Rv1246c), purified (M. tuberculosis, UniProt O50461 1-97)
T2 construct: the methods state the opposite tagging; also called GST-tagged RelE; pGEX-1246c
T2 sequence: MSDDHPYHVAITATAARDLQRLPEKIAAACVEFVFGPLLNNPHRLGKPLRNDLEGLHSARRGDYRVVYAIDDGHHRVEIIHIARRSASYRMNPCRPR

B1: GST-RelG (Rv2866), purified (natural protein)
chain: MPYTVRFTTTARRDLHKLPPRILAAVVEFAFGDLSREPLRVGKPLRRELAGTFSARRGTYRLLYRIDDEHTTVVILRVDHRADIYRR
notes: also called GST-tagged RelG; pGEX-2866
B2: 6xHis-RelB (Rv1247c), purified (natural protein)
chain: MAVVPLGEVRNRLSEYVAEVELTHERITITRHGHPAAVLISADDLASIEETLEVLRTPGASEAIREGLADVAAGRFVSNDEIRNRYTAR
notes: also called his-tagged RelB; histidine-tagged RelB; not shown: His6, N-terminal, kept

How the values were obtained:
[1] = biological target: T1, 6xHis-RelF (Rv2865), purified; assay: pull-down; conditions: both partners purified
[2] = biological target: T2, GST-RelE (Rv1246c), purified; assay: pull-down; conditions: both partners purified

| Binder | binding result [1] | binding result [2] |
| --- | --- | --- |
| B1 | binds | – |
| B2 | – | binds |
